Experimental data published in patent publication US20250277030A1, “ANTI-NAPI2B ANTIBODIES AND METHODS OF USE” (Zymeworks BC Inc., priority 2022, published 2025).

Key:
[1] = Capillary isoelectric focusing (cIEF); assay type: physicochemical; conditions: main isoform; 0.5 mg/mL
Protocol: (§1) The isoelectric point was measured by capillary isoelectric focusing (cIEF), the propensity for self-aggregation was measured by Affinity-capture self-interaction nanoparticle spectroscopy (AC-SINS) and non-specific binding was measured by NS-ELISA, as described below.
cIEF was carried out using Maurice C. (ProteinSimple®) system, System Suitability Kit and Method Development Kit. System suitability standard, fluorescence calibration standard, cartridge and samples were prepared according to vendor's recommendations. The capillary was automatically calibrated with a fluorescence standard preconditioned with Maurice cIEF System Suitability Kit to ensure the capillary was functioning properly. The antibody samples were diluted to a concentration of 0.5 mg/mL in a final volume of 40 μL in Gibco™ Distilled Water, and mixed Maurice cIEF Method Development Kit Samples. The samples were then vortexed, centrifuged and the supernatant pipetted into individual wells of a 96-well plate. All electropherograms were detected with UV absorbance at 280 nm. All data analyses were performed using vendor software Compass for iCE (ProteinSimple®).

KLH = assay: NS-ELISA non-specific binding, KLH; conditions: mAb at 100 nM
Protocol: as §1
(§2) NS-ELISA was used to measure the propensity of the antibodies to bind to a range of biomolecules to emulate the undesirable non-specific interactions to biological matrices in vivo as described below.
(§3) NS-ELISA was carried out in Corning®96-well EIA/RIA Easy Wash™ Clear Flat Bottom Polystyrene High Bind Microplate coated overnight at 4° C. with 50 μL of Heparin (Sigma, H3149) diluted with 50 mM sodium carbonate pH 9.6 to a final concentration of 250 μg/mL. The plate was incubated for 2 days at room temperature, wells that were coated with heparin were not covered to allow air dry. […] Reactions were stopped after approximately 10 minutes by adding 100 μL of 1 M HCl to each well, and absorbance was read at 450 nm. Binding scores were calculated as the ratio of the ELISA signal of the antibody (antibody-treated) to the signal of a well containing buffer instead of the primary antibody (untreated). The cutoffs considered for each binding molecule (ssDNA, KLH, insulin, dsDNA and heparin) were internally calculated, based on the average of Zymeworks Inc. produced antibodies and antibodies benchmarks published in the literature.

[2] = NS-ELISA non-specific binding, heparin; conditions: mAb at 100 nM
Protocol: as §1, §2, §3

[3] = molecular target: T1, NaPi2b expressed on IGROV-1 cells (Homo sapiens, UniProt O95436); assay: Cellular binding of antibody and ADCs to IGROV-1 cells by flow cytometry (Example 14)
T1 construct: IGROV-1 cells express endogenous NaPi2b at a high level; endogenous in cells; host or cells: IGROV-1
T1 sequence (O95436 1-690): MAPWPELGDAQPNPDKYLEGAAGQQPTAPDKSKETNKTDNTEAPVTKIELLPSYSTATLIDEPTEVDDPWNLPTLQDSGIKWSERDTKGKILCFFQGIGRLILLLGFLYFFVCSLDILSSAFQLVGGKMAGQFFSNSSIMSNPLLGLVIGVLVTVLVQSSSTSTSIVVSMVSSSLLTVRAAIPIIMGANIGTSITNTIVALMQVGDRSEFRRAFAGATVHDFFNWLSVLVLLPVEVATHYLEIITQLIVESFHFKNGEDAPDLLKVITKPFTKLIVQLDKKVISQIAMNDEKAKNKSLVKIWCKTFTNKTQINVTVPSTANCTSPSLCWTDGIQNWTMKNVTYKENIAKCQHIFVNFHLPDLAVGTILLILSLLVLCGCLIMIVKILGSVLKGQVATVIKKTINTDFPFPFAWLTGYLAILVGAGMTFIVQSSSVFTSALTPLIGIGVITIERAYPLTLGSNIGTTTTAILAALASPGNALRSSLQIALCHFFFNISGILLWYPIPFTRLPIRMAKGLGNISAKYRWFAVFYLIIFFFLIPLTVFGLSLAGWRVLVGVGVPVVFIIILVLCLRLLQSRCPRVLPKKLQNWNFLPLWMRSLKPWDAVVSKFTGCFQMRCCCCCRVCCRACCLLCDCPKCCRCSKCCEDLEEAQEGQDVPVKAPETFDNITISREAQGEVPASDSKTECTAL
Protocol: Briefly, HEK293-6e cells were transfected for ˜24 hours to transiently express human NaPi2b, cynomolgus or mouse NaPi2b, at 1 μg of DNA per 1 million cells. Following transfection, 50,000 cells per well were seeded in V-bottom 96-well plates and incubated with 200 nM of primary antibody for 18-24 hours at 4° C. to prevent internalization. Post-incubation, cells were washed and stained with anti-Human IgG Fc AF647 conjugate (Jackson Immuno Research Labs, West Grove, PA, Cat. No. 109-605-098, Lot. No. 124868) at 4° C. for 1 hour. Following staining and washing, fluorescence was detected by flow cytometry on BD LSRFortessa™ Cell Analyzer (BD Biosciences, Franklin Lake, NJ) with 10,000 minimum events collected per well. The AF647/APC-A GeoMean (fluorescence signal geometric mean, proportional to anti-Human AF647 binding) was calculated for the live singlet cell population for each primary antibody using FlowJo™ v8 software (BD Biosciences, Franklin Lake, NJ). The Bmax and Kd of each primary antibody were calculated using GraphPad Prism Version 9 (GraphPad Software, San Diego, CA)
The ability of ADCs to bind to cells expressing NaPi2b was assessed. ADCs of a representative humanized variant antibody, v29456 (H1L2), were prepared by conjugation to DL2 and DL1 as described in Example 11. Binding to endogenous high NaPi2b-expressing cell lines IGROV-1 and HCC-78 was assessed by flow cytometry according to methods described in Example 5.

NS-ELISA binding score (ratio of signal between antibody-treated and untreated), KLH (KLH): 1.37 | NS-ELISA binding score (ratio of signal between antibody-treated and untreated), Heparin [2]: 1.06 | Bmax (MFI) [3]: 78,059 MFI | Curve Hill Slope (h) [3]: 1.7 | Kd ([3]; apparent Kd): 0.65 nM
B1: v29456: humanized anti-NaPi2b IgG1/kappa antibody H1L2; VH SEQ ID NO:24, VL SEQ ID NO:29 (antibody, V domains shown)
VH: QVQLVQSGAEVKKPGASVKVSCKASGFTFTSYNVHWVRQAPGQGLEWMGAISPGNGDLSYAQKFQGRVTMTRDTSTSTVYMELSSLRSEDTAVYYCARGRTGMGAVDYWGQGTLVTVSS
VL: DVQMTQSPSSLSASVGDRVTITCRASQDVYSYLNWYQQKPGKAVKLLIYYTSRLQSGVPSRFSGSGSGTDYTLTISSLQPEDFATYYCQQYNIFPWTFGQGTKLEIK
modifications: v29452, v29456, v29460 VH (H1); v29453, v29454, v29455, v29456 VL (L2)
cIEF pI [1]: 8.53
